System: MS2 coat protein
Assay: apparent KD of MS2 coat protein; higher = weaker reporter binding
Conditions: Eterna round: R107
How it was run: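 Binding of SNAP-549-labelled MS2 coat protein was measured on designed RNA switches transcribed on-chip from Illumina sequencing clusters. The protein rose in twofold steps from 0.7 or 1.5 nM to 3 µM, with 0.8–1.5 h per step early on and 10–20 min per step later, in 100 mM Tris-HCl pH 7.5, 80 mM KCl, 4 mM MgCl2, without or with constant ligand. Each design's apparent KD is the median of fits to its normalised cluster binding curves.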

[1] = input ligand: theophylline 20 uM
[2] = input ligand: tryptophan 2.4 mM
[3] = input ligand: theophylline 2 mM

| Sequence | apparent KD of MS2 coat protein (input ligand: arginine 13.2 mM) | apparent KD of MS2 coat protein [1] | apparent KD of MS2 coat protein [2] | apparent KD of MS2 coat protein (input ligand: none) | apparent KD of MS2 coat protein [3] |
| --- | --- | --- | --- | --- | --- |
| UCUUUCUAUUGUGAUACCAGACGUACAUGAGGAUCACCCAUGUUUCAUUCUUGUUUUAAAGUCCCUUGGCAGCACUAUUUGUUCG [JR_Nu_ExcTheophyB_Sub028] | 19.6 nM | 23.9 nM | 15.9 nM |  |  |
| UGACAUUGCUCAGAUACCAGACAUGAGCAUCAGCCAUGUACCAAGAGUACAUGUUAAAAUGUCCCUUGGCAGCUGAGCAAUGUCU [Mod of Eli's TheoBX5 #AlternateMS2 v2] | 73.6 nM | 203 nM | 60.1 nM | 67.6 nM | 452 nM |
| UGAUACCAGUCGGCCGCCACUAUGCUAGAUACUAGCAAUAAAUGGGAACAUGAGGAUCACCCAUGUAGGACCGGGACUGGUAUCU | 32.1 nM | 42.9 nM | 64 nM | 33.6 nM | 42.7 nM |
| UGAUAUGUGGGAAGGAGCGCAUACUUCACAUGAGGAUCACCCAUGUCAAGACGUGAGUCAGUGCAGGUAGGUCGCCUAGUUAUGA [Same State - Arginine B (Freestyle 19)] | 36.8 nM | 101 nM | 85.3 nM | 124 nM | 147 nM |
| UGAUGGUGCGGAAGGAGCGUGUAAGAACAAGAACAUGAGGAUCACCCAUGUAUUAAUUUAACACAGGUAGGUCGCCGUGUUAUUG [11.K] | 29.6 nM | 39.3 nM | 20.2 nM | 35.5 nM | 29.6 nM |
| UGAUGGUUCGGAAGGAGCGUGUAAGAACAAGAACAUGAGGAUCACCCAUGUAUUAAUUUAACACAGGUAGGUCGCCGGGUUAUUG [11.J] | 20.9 nM | 23.1 nM | 14.4 nM | 16.3 nM | 22.2 nM |
| UGCACUCAUGCGGCCGCCACUGUCGGCCGCCACUAAACAUGAGGAUCACCCAUGUAGGACCGGGACAGGACCGGGCAUGGGUGCU [TryBS - #DoubleAptamer 2] | 12.9 nM | 20.7 nM | 9.97 nM | 15.7 nM | 13.8 nM |
| UGGAGAUAGACGGCCGCCACUAACAUGAGGAUCACCCAUGUCGUCACGAAUGGAUGGCCCUAGAAUAGGACCGGGUCCGGAUUCA [theeternabot_exclusion_MS2_Trp_B_48] | 23.7 nM | 42.5 nM |  |  | 50.6 nM |
| UGGCAAGAGGGAAGGAGCGUCAGCAGAGUAACAUGAGGAUCACCCAUGUAGCACGUGGUGUGACAGGUAGGUCGCCCUCUGCCGU [SS-ArgB13] | 28.5 nM | 77.1 nM | 28.3 nM | 32.4 nM | 46 nM |
| UGGCAGUACAUGGGUUACUGCCAAGGUGAUACCAGCAUCGAAAGAUGCCCUUGGCAGCACCAACAUGAGGAUCACCCAUGUAAUA [(MT)''-(M)'-(T')-(Theo)-(Ms2)_Design1/22_8] | 68.5 nM | 210 nM | 247 nM | 234 nM | 53.9 nM |
| UGGGUACAUGAGGAUCACCCAUGUACUGAAGGAGCGAGAAAUAUCUCAGGUAGGUCGCAGACAUGAGGAUCACCCAUGUAGUAGG [Exclusion Arginine A GF 11] | 29.5 nM | 31.8 nM | 26.7 nM | 28.1 nM | 33.1 nM |
| UGGGUACAUGAGGAUCACCCAUGUACUGAAGGAGCGAGAAUUAUCUCAGGUAGGUCGCAGACAUGAGGAUCACCCAUGUAGUGGG [Exclusion Arginine A GF 13] | 15 nM | 22.7 nM | 17.7 nM | 18 nM | 20 nM |
| UGGGUAGAAUAGAUAGAUAGAUAAACUGAAGGAGCGAGAAUAAACUCAGGUAGGUCGCAGACAUGAGGAUCACCCAUGUAGAUGG [Same State Arginine A GF15] | 91.1 nM | 87.2 nM | 88.9 nM | 98.8 nM | 163 nM |
| UGGUAGCCACACUUCAAACAUCGACAAGAUACCAGUUAAUCAACGAACCCUUGGCAGCUUCGUACAUGAGGAUCACCCAUGUGGA [theeternabot_exclusion_MS2_Theo_A_6] | 18.2 nM | 24.2 nM | 19.5 nM |  |  |
| UGUAACAUGAGGAUCACCCAUGUGAGUGAUACCAGACUAGUAUUAGUCCCUUGGCAGCACGUUGGGCGAGUGUAUAGUCUAUGCG [Same State - Theophylline A (Freestyle 14)] | 89.6 nM | 113 nM | 80.3 nM |  |  |
| UGUACAUGAGGAUCACCCAUGUUACAUGAUACCAGACAUGAGAGUGUCCCUUGGCAGCAUGGAGCUGAUACGGCGGGAAGCCGGA [#09 SameState-TheophyllineA] | 26.1 nM | 40.4 nM | 27 nM |  |  |
| UGUACCAUGUCGGCCGCCACUCAUGAUAAACAUGAGGAUCACCCAUGUAGCGUCAAAGACGCUAUGAGGACCGGGACAUGGUACU [TryBS Zipper 2 #StaticStem #Zipper] | 32.5 nM | 49.2 nM |  |  | 45 nM |
| UGUAUGGACUGAAGGAGCGGAAGAUACCAUGAGGAUCACCCAUGGAAUAAGGCGAAAGCCUUCCAGGUAGGUCGCAGUCCAUACU | 16.1 nM | 23.9 nM | 19.8 nM | 18.3 nM | 23.9 nM |
| UGUAUGGACUGAAGGAGCGGGAAAUAAACUUGAGGAUCACCCAGGUAAUAGGCGAAAGCCACCCAGGUAGGUCGCAGUCCAUACU | 22 nM | 38.5 nM | 28.5 nM | 24.3 nM | 45.7 nM |
| UGUAUGUGAUCUGAUACCAGUCCAACUGGUAAAGCGUGAGGAUCACCCAUGCAAAAUUGGGACCCUUGGCAGCAGAUCGCAUACU | 48.6 nM | 290 nM | 185 nM | 337 nM | 208 nM |
| UGUAUGUGAUUUGAUACCAGACCAGCUGGUGGUACACGAGGAUCACCCGUGUAGGUUUGGGUCCCUUGGCAGCAAAUCGCAUACU [SS Theo B #24 Ms3] | 53.7 nM | 68.7 nM | 54.5 nM | 56.8 nM | 18.1 nM |
| UGUUAUGUGGGAAGGAGCGCAUACUUCACAUGAGGAUCACCCAUGUCAAGACGUGAGUCAGUGCAGGUAGGUCGCCUAGUUAAGA [Same State - Arginine B (Freestyle 17)] | 36 nM | 75.1 nM | 45 nM | 73.9 nM | 78.8 nM |
| UGUUUGGUGCGCGAGUGUUGGAUAAUUGAUACCAGUGUAGAAGAGCGCCCUUGGCAGCGAAUCCUAACAUGAGGAUCACCCAUGU [5.W] | 37.6 nM | 54.7 nM | 40.3 nM |  |  |
| UGUUUGGUGCGCGAGUGUUGGAUAAUUGAUACCAGUGUAGAAGUGCGCCCUUGGCAGCGAAUCCUAACAUGAGGAUCACCCAUGU [5.X] | 49.1 nM | 52.3 nM | 39 nM |  |  |
| UUAACGAGCUGAAGGAGCGCUCCUCAACAACAUGAGGAUCACCCAUGUACACAUAAUAGGGAGCAGGUAGGUCGCAGCAGGAUGG [ss-argB-?] | 17.4 nM | 23.4 nM | 15 nM | 15.3 nM | 17 nM |
| UUAAUCAUUGAUGAAAACAUUAAUGCAGAAGGAGCGUGAUAAAACACAGGUAGGUCGCUGAAGGGAACAUGAGGAUCACCCAUGU [AstrosSSArgA#16] | 27.3 nM | 36.5 nM | 30.8 nM | 28.1 nM | 33.6 nM |
| UUAAUCUUAGAAGAAAACUUUUAAGCAGAAGGAGCGUGAUAAAACACAGGUAGGUCGCUGAAGGGAACAUGAGGAUCACCCAUGU [AstrosSSArgA#18] | 29.3 nM | 28.9 nM | 23.1 nM | 22 nM | 29.4 nM |
| UUACAUGAGGAUCACCCAUGUCAUAAUGAUACCAGAUAGUUGAUGAUCCCUUGGCAGCAUAGUACCUAGACAUGUGAGUCAUAGG [Ab] | 116 nM | 130 nM | 76.8 nM |  |  |
| UUAGAUAUGACAGAUACCAGCGUGUUGUUGAACAUGAGGAUCACCCAUGUAGUGAUCGAGCGCCCUUGGCAGCUGGUGUGUUUGG [7.Q] | 77.6 nM | 174 nM | 225 nM |  |  |
| UUAUCUAUAUUCGAUACCAGUACCCUGGCCGCAAAUCCUAACAUGAGGAUCACCCAUGUGUACCCUUGGCAGCGGGUAUGGGUUU [XTheo B #29] | 21.5 nM | 35.1 nM | 24.2 nM |  |  |

From the supplement of paper PMC9170038
